Source: the DeepSol protein solubility set

Assay: soluble on expression in E. coli; label from the status in PepcDB or PDB records

Soluble on expression in E. coli, not soluble:
MGSDKIHHHHHHMTRYQHLAGLLEQRIEQGLYQSGERLPSVRALSTEHGVSISTVQQAYHLLETRQLIMPQPRSGYFVTPRKATPPVPALTRPAQRPVEITQWESVLELVNVRLETNVLKFGSGMPDVSQPTIKPLWKEMSRLCQYQDPRVLQYDSVYGVPALREQIARLTVDCGCQLNQDDIVITTGCQEALFVAVRAVCQPGDIVAVESPAFPGTMQILRGLDIKAIEIPTDSVTGISLEALRLALDQWPVKAVLLVPSCNNPLGFIMPDARKKSLVTLAQHFDIAIIEDDAYGELAYEYPRPRAIKSFDEDGRVLLCSSFSKNLAPGLRVGWIAPGRYLERVIHTKYISTGSTVVQPQLAVAEFIRRGHYQPHLRRMRAQYKANLDIFTCWVREYFPSNICVSRPQGGFLVWIELPEYFDSLKLAREVRKAGIQIAAGSLFSASGKYRNCIRLNYANRFTEEMREGLRIVGSEVAKMMHTLPDQSAP
MGSDKIHHHHHHMTSKPSTSDGRAHSISHVPGTHMRGTSASHSPRPFRPCADCTCSPGLLSRQGRRASLFLRQLENSRRSSSMLLNELKGAGGGSSAGNGSVYSCDSLCAVNREVNTTDRLLKLRQEMKKHDLCCYIVPSCDEHQSEYVSLRDQRRAFISGFSGSAGVACITRDLLNFNDDHPDGKSILSTDGRYFNQARQELDYNWTLLRQNEDPITWQEWCVREALEMAKGLGNKEGMVLKIGIDPKLITFNDYVSFRKMIDTKYDAKGKVELVPVEENLVDSIWPDFETLPERPCNDLLLLKYEFHGEEFKDKKEKLLKKLNDKASSATTGRNTFIVVALDEICWLLNLRGSDIDYNPVFFSYVAINEDETILFTNNPFNDDISEYFKINGIEVRPYEQIWEHLTKITSQASSAEHEFLIPDSASWQMVRCLNTSTNANGAIAKKMTAQNFAIIHSPIDVLKSIKNDIEIKNAHKAQVKDAVCLVQYFAWLEQQLVGREALIDEYRAAEKLTEIRKTQRNFMGNSFETISSTGSNAAIIHYSPPVENSSMIDPTKIYLCDSGSQFLEGTTDITRTIHLTKPTKEEMDNYTLVLKGGLALERLIFPENTPGFNIDAIARQFLWSRGLDYKHGTGHGIGSFLNVHEGPMGVGFRPHLMNFPLRAGNIISNEPGYYKDGEYGIRIESDMLIKKATEKGNFLKFENMTVVPYCRKLINTKLLNEEEKTQINEYHARVWRTIVHFLQPQSISYKWLKRETSPL
MGSDKIHHHHHHMTSLFYSPLIKYRVDVLPSSELKKENINTKALVVIGDGINREKISEDLELNPLLVRIVGKDSSKEEVEYNKVVLENAWLADLAPVEEIKSIDRRSLLRGEVKKAKKVDKPIYLSEYCNGLYKACNVCEFSCPYNAIKVDKKTGVNIDYTKCTSCGLCVASCPVSAIQFPSLSQNSIFELAKVKGEKRITCYRNTKNRGVKIPCLAMLSEVDIVLLRGSGNLTFECVGCELQDNLKDFIEVIKEYNERIGGISFYSPSEKIEAKETKELNTTPQSFYNRAEARRNISDELPYILFDVSIDNNRCTLCESCVNWCPTSAIMLRRSSGVEEIDFDPMKCIGCNICVNVCPESCKLEEGKTSEIPPNIASLTKVIKVEKSKSVNKEVRKLVGDELVRCRVCGAPIGSRKSLNHVKKIMIEKGASCEDEWLERCPKHRAEYAFQKQFSFNARFKPRGDLR
MGSDKIHHHHHHMTSPVENVKKKPRPLALSPSRAGDYQQCPLLYRFRAIDRLPEPKTVAQVKGTLVHAVLEYMHKLPREEREYPAMVKQLKPTWAQMCEEDAELKELVPEDELYDFLVDSRTLLRGYFEMENPQGFDATECEMYVDTVLPNGVPVRGFIDRVDTAPTGQVRVIDYKTGKKPKPQWSQQAQFQMLFYALVYWRMFNEIPAQLRLMYLKVNDSMFLNPSREQLEFFERDLGDLWAKIEMDGKAGHFRTKTSKLCGWCPHQSLCPEYGGVPPEYPGWPGSTAD
MGSDKIHHHHHHMTSQDTADTGMADMDMTDTGMFLAKADIFASLTPEEDRAWSQLCTVESVSGGTIVLDYGIRPEIVLVVLSGALRATLRVSAGKELFLDMIGPGGTMAEMDAIRAEGYNLCLMATTDATLVRMPVDVFNDIIAQKHTVCLSLLSVLVQRMHVLHARICEFSYLDVRHRLYTTLLRLSKPSEDKPQQRTISPVIIHAALAEHVGARRETVSREMSRLVQDGVIERNRNAIVIRQPHELLRRLSQFDFA
MGSDKIHHHHHHMTSSAPLIDFAHDLRYEDIPVHVRSIVREQIIATVGSILGGAQLPVAKSFEQSILATFGRGESSAFGAGTGMSAASAALYNSGLAQLLDWEDWVLISHVGAAVVPVAWALAEERGLRLNDVIVAVTIGNEIAGRTSRAIQRGAYLGNGLPNHQIELPLVAGRLLGLDRRQLGYALGHSCYMAMENCPVGWTTDSKLLVNGLPAMWAIASANMARQDIVGRGDIVEHPAGYLATVSESIDFKELTRDIGVKWYTETLSTKKHAGCAYNLPAAECAMSIREEIAPEDVERIVVECSTATLYVGGRYDDFEPGVLDAYEQGLLTHVGLCFDTKFCVAAAYVHGDLIHEQYLVENATDARVKALYGKISLVPSERLQKAQFQDFKYGATVTVHGRDGRTATRTVEQMLGGYDRPFDHATKLADGARGLLPPEAVDGIVARLRDETGNPLASEISTLINGAP
MGSDKIHHHHHHMTTAADLSVFEQLDLPDTSLTRDTFAFAAQATPAFIHDHCVRSYVFARAHAQNQGLRAGTDYDDELLFVSCVLHDLGLSEEGSNGDQRFEVDGADIAAAFLRERGVEEERIAVAWDAIALHTSEGIASRKGTEVALAHLGIATDILGIQRESLPAGLADEVHALLPRQDLAHGFSDLIITQAVAKPHKASPTNFIGDLLRRHLPYGAYPNWYDLIDAAGWGDKPVGVTARRRAETPQQVGTLFMEYLEAGDVEGLVSLYEPNAHFVPTPGTHLVGTDAIREAMRQMVDSGARLKLEQREIRQVDDIALVSNNAILTGIGPEPVVSTTTEILRRQPDGGWVHAVDDPFFS
MGSDKIHHHHHHMTTATHPNDALFAGEKSFPVLAACEHFAGSEKLIGKAMDLQVEYGPVFDVTCDCEDGAAAGQEREHAEMVARMIASDRNVHGRAGARIHDPSHPAWRQDVDIIVNGAGGRLAYITVPKATNSGQVAEVIRYIGDVAKRAGLDKPVPVHVLIETHGALRDVFQIAELPNIEVLDFGLMDFVSGHHGAIPAAAMRSPGQFEHALLVRAKADMVAAALANGIVPAHNVCLNLKDAEVIASDACRARNEFGFLRMWSIYPAQIQPIVNAMRPDFTEVEDAAGILVAAQDADWGPIQYKGELHDRATYRYFWEVLQKAKVTGMAVPAEAERRFFVN
MGSDKIHHHHHHMTTGKKVARRKLSLLELASELDNVSKACRIMGYSRQQFYEIRRNYQTFGAEGLVDRLPGPREPHPNRVDEATEDRILAYSLEFPTHGPVRVAQQLVLQGVQVSSGGVRGVWSRNGMLTRHERLLRLERHVRDTGIALNDDQVRTLERFSPEFRERHIETRCSGDLVAVDTFFVGTLKGVGKIYLQSAIDCHSRYAFGRLYTSKLPVTAVHMLNESVLPFFEEHDTPVVTVLSDNGREFCGRPDRHPYELFLQLENIEHRTTRVRRPQSNGFVERLHRTLLDEHFRIQGRKNWYESLDEMQADLDAYLRHYNHERAHQGRNMSGRTPYQAFLDSRPEGQPKEDNEGHYAA
MGSDKIHHHHHHMTTKPERVVLIGVAGDSGCGKSTFLRRLIDLFGEEFMTVICLDDYHSLDRKQRKETGITALDPRANNFDLMYEQIKALKEGQTINKPIYNHETGLIDPPEIVKPNHIVVVEGLHPLYDERVRSLLDFSVYFDISDEVKIAWKIQRDMAERGHRYEDVLAAINSRKPDFQKYIEPQREFADVVLQVLPTNLIKDDTDRKVLRVRMLQREGKEGFEPAYLFDEGSTINWTPCGRKLTCSYPGMQLYYGSDVYYGRYVSVLEVDGQFDNLEEVIYIETHLSNTSTKYQGELTQLLLQHREYPGSNNGTGFFQVLTGLKMRAAYERLTAKEAKLAVQV
MGSDKIHHHHHHMTTQFACSGIELELFRYPSQQASNLQAWDAADEHLVKYLIDTEITATTTAILNDNFGALTCALTMQYPHSELLVETDAKTSLLGYQQNLLHNKLASTNIHWLNSRETLPQNIQLVLMKLPKNLHYFGQQLARLSTVLPAGTQILIGAKAKSINPALLASIEKNLGPASASLAWKKTRVISCISDGKKRSLAKAVSWNVDELKLTISNLANVFAANKLDIGARIMLDNMPKGEFKHIIDLGCGNGILGLHAKQCYPNAQIHFVDDSDMAIASAKHNWQANELDTPSQDLQSQDPQTEQMPQAFFHWDDCLSNLPADVEPDLVICNPPFHQGEAITDHIAWQMFVDAHKRLKKGGLLHIVGNRHLAYHVKINRIFKNCTTVASNGKFVILQAIK
MGSDKIHHHHHHMTTSITIGNFKGGVGKTTTCVTFSYLLNKAHRKTLLIDFDPQGNASEIIEKTFPVFKQKNSKSLTDGIKNLDLSESIAHVTDYLDLMPSDWSLSLLPDMLEDYKKSDRPLFLKTLLTKIRNDYDYILIDVPPTLSAYTNNAVLASDYVIMVMQTQEQSYSSSLKFVSYLQGLRKDYDKSFDLLGIIAYLVKKDGPVDHEVLKAANQAFGKALFHGNVFQRERVKRFGKSGIKDEDMWDKRALYMYQVVLDEALSRINLLEE
MGSDKIHHHHHHMTTTDTRPSPSPLQQDYQRFLLLGSRRAPYTLHVHETGYRSGTINTDALGLRYSHCAGKRFSAAEHGGASRINLLVGGSTALGIGASSDEHTVASHLSMLTGEVWLSLAGCGLNATQELMMFLTHQHRLGQLGHVVVLSGLNSLAHEALCEVLAGTNDPQHAKAYQAFLNSFSEGMQPCAPPRRQSLWRRIGQALTPPVAAPPVSWPLSPPEKRLARAADNIGRTLRQWDRLLADSHATLTFILQPLLPWCRDTLPAGEQAMLTALQQQPANFDRLLEGAFDRQLHSAFFRRIKSQADPVPCYDMNCMLDSSPVFGADLFIDRLHLNDLGNNALAKVITAKLGLAQEKHAQRKVTPIKLV
MGSDKIHHHHHHMTVHHHHHTHHVSLHKIKKLFSKHSSHGHKLTRDEARSALHDIEHLAKELHFQKVFDHHAHDGHISLKGFLSFISPHHGHHTHHAHGAHPGHHEVHHHHHHVKAQDSSSSSSSSSSSSSSSSSSSSSSSSSSSESEDEKHHHKKHAKKHLKKHHKKAESSSSSSSSSSSSSSSSSSSSSSESEDEKHHHKKHAKKHLKKHHKKAESSSSSSSSSSSSSSSSSSSSSSSESEDEKHHHKKHAVKKHHKKAESSSSSSSSSSSSSSSSSSEDEKHHHKKHAAKKHVKHHKKAASSSSSSSSSSSSSSSSSSSSSSESEDEKKKKKVHHKKSHGKKHHKKAASSSSSSSSSSSSSSSSSSSESEDEKKHAPAHHEHHEHKDGAHHEHKEGEHHEHAAHHDEHGVHHRHHGEHHGTHHSPAHHGEHGTHHGHHGEHHHAPAHHGHHESHGHGHHSPAHHGHHGEHHHAPAHHGHHGEHHHAPAHHGHHGEHGTHHGHHGSHHSPAHHGHHGEHHHAPAHHGHHGEHGTHHGHHGEHHHAPAHHGHHGEHGTHHGHHGSHHSPAHHGHHGEHHHAPAHHGHHGHHGSHGVHHGHHESHGHGHHAPAHHGHHGEHGVHHGHHGAGYGAHHGHHGAHHHHAPHHEHHEHHGDHHHGSHGVHHGHHGTHHSLAHHGHHGGHGTHHGAHHSPAHHGHHGAHHEHGAHHGAHHGHHDDKENHHHHGHHSKHSKKQHTKKSHKKSH
MGSDKIHHHHHHMTVPPRVSAGEVFQHFRGTSPLTRARLSALTGLSRAATTDRMRTLASRGLIGPANEAPSTGGRPSAQFRLMPNSGAVMSVLLGASEAKVQAFDLSGQPLSAAKPVETVRGGYAAILDSCLASAYSLLDSMDDISGQLVATGVVLDEGAPDLDWPEYFAGRPVVVDSALGAMATAEALSRTPRPQNMLFLDVGKTIGCAVLVHGRTMGGFRTSKEAFGHTPGKGTPTLPCACGIMNCLQAIAGEEAIIAGLSSDLADEPDAISGAVRRSDAAAVSALRQAGRDIGDTLLGSIHLLQPEFITVRTRWPGAADFLLAGLREAIYASGVPAVTENLVLASSTTGSPATGIALRALDAGLAVESVDRLLSAPPNLSGQRNYWPAPLKSIDRQRHAS
